{
  "source": "paper PMC5579359",
  "about": "“Sensing of viral and endogenous RNA by ZBP1/DAI induces necroptosis” (The EMBO Journal, 2017)",
  "target": "the molecule itself",
  "experiment": "non-reducing SDS-PAGE and Western blot",
  "data": [
    {"protein": "MLKL (natural protein, mouse (endogenous in NIH3T3), UniProt Q9D2Y4 1-472, looked up, also called pseudokinase MLKL; source: endogenous, NIH3T3 cell and primary MEF lysates) MDKLGQIIKLGQLIYEQCEKMKYCRKQCQRLGNRVHGLLQPLQRLQAQGKKNLPDDITAALGRFDEVLKEANQQIEKFSKKSHIWKFVSVGNDKILFHEVNEKLRDVWEELLLLLQVYHWNTVSDVSQPASWQQEDRQDAEEDGNENMKVILMQLQISVEEINKTLKQCSLKPTQEIPQDLQIKEIPKEHLGPPWTKLKTSKMSTIYRGEYHRSPVTIKVFNNPQAESVGIVRFTFNDEIKTMKKFDSPNILRIFGICIDQTVKPPEFSIVMEYCELGTLRELLDREKDLTMSVRSLLVLRAARGLYRLHHSETLHRNISSSSFLVAGGYQVKLAGFELSKTQNSISRTAKSTKAERSSSTIYVSPERLKNPFCLYDIKAEIYSFGIVLWEIATGKIPFEGCDSKKIRELVAEDKKQEPVGQDCPELLREIINECRAHEPSQRPSVDGRSLSGRERILERLSAVEESTDKKV", "values": [
      {"measurement": "stoichiometry N", "result": 3}
    ]}
  ]
}
